The experiment addresses Mouse Fc (mFc) tagged mink ACE2 (mink (Neovison vison)). Kind of experiment: SPR.

Regarding “SARS-CoV-2 WT RBD (from UniProt P0DTC2 319-541) (domain or fragment)”, the Kd came to 8.16 µM.

A word on the Kd: it is the free concentration of one partner at which half of the binding sites on the other are occupied at equilibrium, for simple one-to-one binding. A higher Kd goes with weaker binding.

The record behind these values is paper PMC8528823.
